This passage reports Kd results from the Immune Epitope Database (IEDB).

Some targets named below: HLA-B*39:01; HLA-A*02:03; HLA-B*27:03; HLA-B*53:01; HLA-A*02:01; HLA-A*02:16; HLA-B*57:01; HLA-A*68:02.
Common to all, as to assay: IEDB peptide-MHC binding, purified MHC/competitive/fluorescence; filed as Kd, often an IC50 or EC50 that approximates it; ≥ and ≤ were set here for values at or beyond the usual limits of such assays
Holding throughout (conditions): source organism: Entamoeba histolytica HM-1:IMSS

A value given as a limit tells only on which side of the number the result lay.

Turning to EVRKAIEFV, the Kd in the test with HLA-B*39:01 was at least 20 µM; in the test with HLA-A*02:03, at least 20 µM; with HLA-B*27:03, at least 20 µM; with HLA-B*53:01 it was at least 5 µM; with HLA-A*02:01, at least 20 µM; with HLA-A*02:16, at least 20 µM. Besides, the Kd with HLA-B*57:01 is at least 20 µM; in the test with HLA-A*68:02 it was at most 0.001 µM.
